These results are taken from publication PMC5392571, “A model for the conformational activation of the structurally quiescent metalloprotease ADAMTS13 by von willebrand factor” (The Journal of Biological Chemistry, 2017).

The target of assay [1] is T1, WT MDTCS (ADAMTS13 residues 1–685) (human, UniProt Q76LX8 30-685).
T1 construct: signal peptide in the construct; ADAMTS13, human, residues 1-685 (metalloprotease, disintegrin-like, TSP1, cysteine-rich and spacer domains); In pCEP4; also called truncated ADAMTS13 variant MDTCS; source: HEK293S cells, purified; not shown: His6, C-terminal, kept
T1 sequence (looked up): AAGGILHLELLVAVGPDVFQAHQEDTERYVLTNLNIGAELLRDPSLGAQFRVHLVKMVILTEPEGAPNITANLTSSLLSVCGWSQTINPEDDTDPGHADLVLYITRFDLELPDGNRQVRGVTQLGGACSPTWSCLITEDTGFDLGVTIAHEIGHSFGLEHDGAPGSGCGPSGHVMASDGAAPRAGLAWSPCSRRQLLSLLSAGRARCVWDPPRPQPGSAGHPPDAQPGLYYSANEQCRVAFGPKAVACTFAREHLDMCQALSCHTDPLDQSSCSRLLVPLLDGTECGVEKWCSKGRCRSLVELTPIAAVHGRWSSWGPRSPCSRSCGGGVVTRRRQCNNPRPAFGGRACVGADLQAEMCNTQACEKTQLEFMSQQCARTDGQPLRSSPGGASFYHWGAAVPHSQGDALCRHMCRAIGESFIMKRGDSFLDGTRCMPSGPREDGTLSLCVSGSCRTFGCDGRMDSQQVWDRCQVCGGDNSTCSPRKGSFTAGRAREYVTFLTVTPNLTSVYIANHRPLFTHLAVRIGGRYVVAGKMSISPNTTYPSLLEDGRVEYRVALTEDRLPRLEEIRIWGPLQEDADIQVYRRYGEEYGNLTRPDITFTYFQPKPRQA
The assay is described as follows: SPR; BIAcore T100, CM5 chip; 10 mM HEPES, 150 mM NaCl, pH 7.4, 0.0034 mM EDTA, 0.005% Tween 20; the text says MDTCS variants were immobilised, the legend of Fig. 1 says the CUB fragments were; global analysis. Particulars: both partners purified. On the technique in general: In SPR one partner is held on a chip, and binding of the other changes the refractive index at the surface.

The target of assay [2] is T2, dimeric VWF D4-CK domain fragment (VWF residues 1874–2813) (UniProt P04275 1874-2813).
T2 construct: von Willebrand factor, residues 1874-2813 (D4 to CK domains); source: HEK293S, transiently expressed, purified by FPLC
The assay is described as follows: SPR; BIAcore T100, CM5 chip; ADAMTS13, its truncation variants or CUB fragments immobilised, VWF D4-CK as analyte; 10 mM HEPES, 150 mM NaCl, pH 7.4, 0.0034 mM EDTA, 0.005% Tween 20; global analysis. Particulars: both partners purified.

B1: CUB2 domain fragment (ADAMTS13 residues 1299–1427) (domain or fragment, human, UniProt Q76LX8 1299-1427, looked up)
chain: CDMQLFGPWGEIVSPSLSPATSNAGGCRLFINVAPHARIAIHALATNMGAGTEGANASYILIRDTHSLRTTAFHGQQVLYWESESSQAEMEFSEGFLKAQASLRGQYWTLQSWVPEMQDPQSWKGKEGT
notes: ADAMTS13, human, residues 1299-1427 (CUB2 domain); Generated by inverse PCR from the full-length ADAMTS13 construct (C-terminal Myc/His6); detected by anti-His6 in the co-IP; also called isolated CUB2 fragment; source: HEK293S cells, purified
B1: the dissociation constant Kd in assay [1] amounted to 86.9 nM; in assay [2] it was 84.3 nM.

B2: CUB1-2 domain fragment (ADAMTS13 residues 1192–1427) (domain or fragment, human, UniProt Q76LX8 1192-1427, looked up)
chain: CGRQHLEPTGTIDMRGPGQADCAVAIGRPLGEVVTLRVLESSLNCSAGDMLLLWGRLTWRKMCRKLLDMTFSSKTNTLVVRQRCGRPGGGVLLRYGSQLAPETFYRECDMQLFGPWGEIVSPSLSPATSNAGGCRLFINVAPHARIAIHALATNMGAGTEGANASYILIRDTHSLRTTAFHGQQVLYWESESSQAEMEFSEGFLKAQASLRGQYWTLQSWVPEMQDPQSWKGKEGT
notes: ADAMTS13, human, residues 1192-1427 (CUB1 and CUB2 domains); Generated by inverse PCR from the full-length ADAMTS13 construct (C-terminal Myc/His6); source: HEK293S cells, purified
As to B2, the Kd came out at 55.6 nM in assay [1] and 51.8 nM in assay [2].

B3: CUB1 domain fragment (ADAMTS13 residues 1192–1298) (domain or fragment, human, UniProt Q76LX8 1192-1298, looked up)
chain: CGRQHLEPTGTIDMRGPGQADCAVAIGRPLGEVVTLRVLESSLNCSAGDMLLLWGRLTWRKMCRKLLDMTFSSKTNTLVVRQRCGRPGGGVLLRYGSQLAPETFYRE
notes: ADAMTS13, human, residues 1192-1298 (CUB1 domain); Generated by inverse PCR from the full-length ADAMTS13 construct (C-terminal Myc/His6); detected by anti-His6 in the co-IP; also called isolated CUB1 fragment; source: HEK293S cells, purified
Take B3: the Kd in assay [1] is 135 nM; in assay [2], 53.7 nM.

What is called Kd is the equilibrium constant for the complex coming apart.
